Key:
[1] = target: T1, purified recombinant human α-synuclein (Homo sapiens, UniProt P37840); assay: Biacore peptide-protein binding assay; conditions: 0.20-12.50 μM peptide, report point 20 seconds into dissociation
T1 construct: His (histidine tag) (N); purchased Sigma S7820-500UG
Experimental: Biacore experiments were performed using a Biacore 3000 instrument (GE Healthcare Biosciences, Upsala, Sweden) and HBS running buffer, pH 7.4, containing 10 mM HEPES, 150 mM NaCl, 3 mM EDTA, and 0.005% surfactant P20. A research-grade CM5 sensor chip was activated with a mixture containing equal molar amounts of EDC (N-ethyl-N′-(dimethylaminopropyl) carbodiide and NHS (N-hydroxysuccinimide). Purified recombinant human α-synuclein (N-terminal histidine tagged, Sigma, S7820-500UG), diluted in sodium acetate pH 3.1, was then injected and covalently coupled to a flow cell of the sensor chip surface by amide bonding. Residual unreacted sites were blocked with ethanolamine. A reference surface, to account for non-specific binding, was similarly generated by activating and blocking an adjacent flow cell. Approximately 1500 resonance units (RU), equivalent to a surface concentration of 1500 pg/mm^2 of α-synuclein, was immobilized.
To ascertain the binding interaction between α-synuclein knockdown peptides and α-synuclein, synthetic Tat-βsyn-degron peptide or control tat peptide was serially diluted and sequentially injected over the active surface containing immobilized α-synuclein and the reference surface for 3 minutes at a flow rate of 30 μl/minute. The peptides were then allowed to dissociate for 3 minutes during which time HBS running buffer was injected. The resultant sensorgrams were double-referenced by subtracting out the binding on the reference surface and the response from the HBS blank buffer control. Binding response report points were collected 20 seconds into the dissociation phase of the interaction at time 200 seconds, which represents a stable binding response and excludes bulk refractive index changes and nonspecific binding.

human A53T α-synuclein = target: T2, human A53T α-synuclein (Homo sapiens, UniProt P37840, A53T); assay: Brain α-synuclein ELISA in M83 transgenic mice after i.p. injection; assay type: in vivo, mouse; conditions: 40 mg/kg i.p.
T2 construct: tissue The Jackson Laboratory 004479; host or cells: brain of M83 hemizygous transgenic mice
Experimental: Tat-βsyn-degron peptide was also shown to decrease α-synuclein levels in vivo, using M83 transgenic mice that overexpress mutant human A53T α-synuclein. M83 mice, injected intra-peritoneally (i.p.) with 40 mg/kg Tat-βsyn-degron peptide, were sacrificed at time points of 6, 12, 24, and 48 hrs and α-synuclein levels in the brain were measured by ELISA.
Male M83 hemizygous mice overexpressing the human A53T α-synuclein mutant (12 weeks old, 25-30 g, 004479, The Jackson Laboratory) were housed individually and maintained on a 12/12 hrs light/dark cycle at 22° C. ambient temperature and with unlimited access to food and water. Housing, breeding, and procedures were performed according to the Canadian Council on Animal Care and were approved by the McGill University Animal Care Committee.
Brains were lysed (1 g tissue per 3 mL solution) in a buffer solution (50 mM Tris pH 8, 150 mM NaCl, 5 mM EDTA, 1% NP-40, 0.5% sodium deoxycholate, 0.1% SDS, protease and inhibitor cocktail [aprotinin, leupeptin and benzamidine], and phosphatase inhibitor cocktail) on ice. Lysates were homogenized at 1,600 g several times, sonicated and finally centrifuged at 100,000 g for 30 min. The supernatant was collected and processed with the Human α-synuclein ELISA kit (KHB0061, ThermoFisher Scientific) and analyzed with a Tecan microplate reader (Tecan Infinite M200 Pro, life science). The level of α-synuclein was expressed as ng/ml total sample.

C57BL/6 mice = assay: MPTP mouse model, rotarod test; assay type: in vivo; conditions: peptide 6 μmol/kg i.p. twice a day for 12 days, vs MPTP group
Experimental: C57BL/6 mice (20-25 g) received intraperitoneal (i.p.) injection of 30 mg/kg parkinsonian toxin MPTP hydrochloride once a day for 5 days to induce dopaminergic neuron death in the substantia nigra, while the control mice received equal volumes of saline injection. 6 μmol/kg Tat-βsyn-degron peptide or control Tat-βsyn peptide was i.p. injected into the MPTP-treated mice every 12 hrs from the first day of MPTP injection until 7 days after the last injection of MPTP. All groups of mice then underwent a rotarod test before they were sacrificed.
The rotarod test was performed as previously described (Heldermon, C. D. et al., PloS one 2, e772, doi:10.1371/journal.pone.0000772 (2007)), with modifications. Briefly, 6 days after the last MPTP injection, all mice received 4 rounds of training on the rotarod (Stoelting Co.). In the first two rounds of training, the rotarod was maintained at constant speed of 20 rpm for 3 min. In the second two rounds of training, the rotarod reversed rotation direction every 3 turns at the constant speed of 20 rpm for 3 min. […] Mice were tested 10 times at 20 min intervals, and the time that they remained on the rotarod during each test was recorded. […] The motor performance of the mouse was expressed as the latency to fall off the rotarod.

YGRKKRRQRRRRTKSGVYLVGRRRG (The sequence is synthesized (YGRKKRRQRRRRTKSGVYLVGRRRG)) [Tat-βsyn-degron]
binding response to immobilized α-synuclein [1]: robust and similar binding
time of peak effect on brain α-synuclein (human A53T α-synuclein): around 24 hrs
α-synuclein levels in the brain (ELISA) (human A53T α-synuclein; 12 hrs): reduction of α-synuclein levels
α-synuclein levels in the brain (ELISA) (human A53T α-synuclein; 24 hrs): reduction of α-synuclein levels
MPTP-induced motor deficits (latency to fall off the rotarod) (C57BL/6 mice): significantly reduced

Source: US20260027179A1, “ANTI-SYNUCLEINOPATHY PEPTIDE AND METHODS TO TREAT NEURODEGENERATIVE DISEASES” (University of British Columbia, priority 2021, published 2026)
